Laboratory results reported in publication PMC6326811.

Molecular target: FLAG-HA-tagged full-length wild-type TOE1 (human) (UniProt Q96GM8)
Assay: co-IP; IP-TRAP: lysates of 293T cells transiently expressing FLAG-HA-tagged proteins incubated with anti-FLAG M2 beads at 4°C for 2 h; telomerase in the eluates read by its activity (Q-TRAP)

active telomerase (endogenous telomerase holoenzyme of 293T cells) (from UniProt O14746 1-1132) (complex)
telomerase activity brought down, relative to FLAG-TCAB1 (fraction of FLAG-TCAB1): 0.33
